Test results from patent US20140377280A1 (ROCKEFELLER UNIVERSITY, published 2014).

Biological target: T1, α2,6-sialylated recombinant human IgG1 Fc (sFc), prepared by papain cleavage of full-length IDEC-114 antibody … (human, UniProt P0DOX5 227-449 = IgG part, limits assumed, N-linked glycan at Asn297 with terminal α2,6-linked sialic acid (in vitro galactosylation and sialylation))
T1 construct: also called α2,6-sFc; α2,6 sFc
Assay: SPR steady-state affinity, immobilized DC-SIGN ECD
Protocol: To determine the interaction between various recombinant Fc preparations to soluble hDC-SIGN or hFcγRs, steady-state affinity measurements were recorded on a Biacore T100 sensor. Receptors, diluted to 20-50 μg/mL in NaOAc pH 5.0, were immobilized on CMS chips at high density (2000 RU) by standard amine coupling. For hDC-SIGN interactions, injections were performed at a flow rate of 20 μL/min with commercially available HBS-P+ buffer adjusted to pH 9.0 and supplemented with 2 mM CaCl₂ and 500 mM NaCl. For hFcγRs interactions, injections were performed at a flow rate of 20 μL/min with commercially available HBS-EP+ buffer. Surfaces were regenerated with a short pulse of 50 mM NaOH. Kd values were calculated after subtraction of background binding to a control flow cell using Biacore Evaluation software.

B1: soluble human DC-SIGN extracellular domain with N-terminal strep tag (receptor, UniProt Q9NNX6 59-404, looked up)
chain: QVSKVPSSISQEQSRQDAIYQNLTQLKAAVGELSEKSKLQEIYQELTQLKAAVGELPEKSKLQEIYQELTRLKAAVGELPEKSKLQEIYQELTWLKAAVGELPEKSKMQEIYQELTRLKAAVGELPEKSKQQEIYQELTRLKAAVGELPEKSKQQEIYQELTRLKAAVGELPEKSKQQEIYQELTQLKAAVERLCHPCPWEWTFFQGNCYFMSNSQRNWHDSITACKEVGAQLVVIKSAEEQNFLQLQSSRSNRFTWMGLSDLNQEGTWQWVDGSPLLPSFKQYWNRGEPNNVGEEDCAEFSGNGWNDDKCNLAKFWICKKSAASCSRDEEQFLSPAPATPNPPPA
notes: extracellular domain; also called DC-SIGN ECD; soluble hDC-SIGN; not shown: N-terminal strep tag
**Q.** Which Kd does the source give for B1 here?
**A.** ~1300 nM
